Laboratory results as given in paper PMC9352680, “A comprehensive thermodynamic model for RNA binding by the Saccharomyces cerevisiae Pumilio protein PUF4”.

These binders were tested against T1, PUF4 RNA-binding domain (Saccharomyces cerevisiae, UniProt P25339 537-888) (assay: Mg; RNA-MaP; 20 mM Na-HEPES pH 7.4, 30 mM KOAc, 0.75 mM MgCl2, 0.1% Tween-20, 5% glycerol, 0.1 mg/mL BSA, 2 mM DTT; 25 C; 0.0125-409.6 nM protein). Conditions: tags: N-His6-TEV cleaved; C-SNAP kept, Cy3B-labelled; label: tethered on chip by stalled RNA polymerase.
T1 sequence: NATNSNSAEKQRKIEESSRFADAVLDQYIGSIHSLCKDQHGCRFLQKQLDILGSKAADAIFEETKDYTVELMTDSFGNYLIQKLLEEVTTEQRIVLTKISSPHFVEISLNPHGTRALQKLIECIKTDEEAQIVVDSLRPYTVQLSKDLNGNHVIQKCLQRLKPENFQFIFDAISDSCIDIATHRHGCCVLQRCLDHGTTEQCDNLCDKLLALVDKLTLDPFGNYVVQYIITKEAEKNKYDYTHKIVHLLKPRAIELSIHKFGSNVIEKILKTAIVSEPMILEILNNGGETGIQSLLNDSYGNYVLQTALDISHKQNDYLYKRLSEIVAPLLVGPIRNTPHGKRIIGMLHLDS

Binder | Kd [nM]
UCUCUUCGUAUUAUAAUCUCUU (ssRNA) [Ib_S1_P5E.1_K5.1_C5.1_H5.1_[T1C]_A5.1_F5.1_[T9A]_T5.1] | 691
UCUCUUUGUAUUAUUGUCUCUU (ssRNA) [Ia_S1_P5E.1_K5.1_C5.1_H5.1_A5.1_F5.1_[A10G]_T5.1] | 14.8
UCUCUUUGUUUUACUAUCUCUU (ssRNA) [Ib_S1_P5E.1_K5.1_C5.1_H5.1_[A4T]_A5.1_F5.1_[T8C]_T5.1] | 59.6
UCUCUUUGUGUUAAUAUCUCUU (ssRNA) [Ib_S1_P5E.1_K5.1_C5.1_H5.1_[A4G]_A5.1_F5.1_[T8A]_T5.1] | 134
UCUCUUUGUUUUAAUAUCUCUU (ssRNA) [Ib_S1_P5E.1_K5.1_C5.1_H5.1_[A4T]_A5.1_F5.1_[T8A]_T5.1] | 73.4
Id_ii_S2_P3E.3_K3.2_C3.2_[C-2G]_H3.2_A3.1_F3.1_T3.2_[A10T] (ssRNA) RNA: UUUGAUUAAUAUGAUAUCGUUCUUUCUGUUAUAUAUAUUUUCUUUCUCGAUAUCAUAUUAAUCUUU | 9.18
Id_ii_S2_P3E.3_K3.2_C3.2_[C-2T]_[T-1A]_H3.2_A3.1_F3.1_T3.2_[T9A] (ssRNA) RNA: UUUGAUUAAUAUGAUAUCGUUCUUUCUUAUAUAUAUAAAUUCUUUCUCGAUAUCAUAUUAAUCUUU | 498
Id_ii_S2_P3E.3_K3.2_C3.2_[C-2T]_H3.2_A3.1_F3.1_T3.2_[T9A]_[A10T] (ssRNA) RNA: UUUGAUUAAUAUGAUAUCGUUCUUUCUUUUAUAUAUAAUUUCUUUCUCGAUAUCAUAUUAAUCUUU | 439
Id_ii_S2_P3E.3_K3.2_C3.2_[C-2T]_[T-1A]_H3.2_A3.1_F3.1_T3.2_[T9A]_[A10T] (ssRNA) RNA: UUUGAUUAAUAUGAUAUCGUUCUUUCUUAUAUAUAUAAUUUCUUUCUCGAUAUCAUAUUAAUCUUU | 247
Id_ii_S2_P3E.3_K3.2_C3.2_[C-2T]_[T-1G]_H3.2_A3.1_F3.1_T3.2_[T9G]_[A10C] (ssRNA) RNA: UUUGAUUAAUAUGAUAUCGUUCUUUCUUGUAUAUAUAGCUUCUUUCUCGAUAUCAUAUUAAUCUUU | 2.63
Id_ii_S2_P3E.3_K3.2_C3.2_[C-2A]_[T-1G]_H3.2_A3.1_F3.1_T3.2_[A10T] (ssRNA) RNA: UUUGAUUAAUAUGAUAUCGUUCUUUCUAGUAUAUAUAUUUUCUUUCUCGAUAUCAUAUUAAUCUUU | 407
Id_ii_S2_P3E.3_K3.2_C3.2_[C-2T]_[T-1C]_H3.2_A3.1_F3.1_T3.2_[T9C]_[A10G] (ssRNA) RNA: UUUGAUUAAUAUGAUAUCGUUCUUUCUUCUAUAUAUACGUUCUUUCUCGAUAUCAUAUUAAUCUUU | 536
Id_ii_S2_P3E.3_K3.2_C3.2_[C-2T]_[T-1C]_H3.2_A3.1_F3.1_T3.2_[A10T] (ssRNA) RNA: UUUGAUUAAUAUGAUAUCGUUCUUUCUUCUAUAUAUAUUUUCUUUCUCGAUAUCAUAUUAAUCUUU | 68.1
Id_ii_S2_P3E.3_K3.2_C3.2_[C-2T]_[T-1C]_H3.2_A3.1_F3.1_T3.2_[T9A]_[A10T] (ssRNA) RNA: UUUGAUUAAUAUGAUAUCGUUCUUUCUUCUAUAUAUAAUUUCUUUCUCGAUAUCAUAUUAAUCUUU | 147
Id_ii_S2_P3E.3_K3.2_C3.2_[C-2T]_[T-1A]_H3.2_A3.1_F3.1_T3.2_[T9C]_[A10T] (ssRNA) RNA: UUUGAUUAAUAUGAUAUCGUUCUUUCUUAUAUAUAUACUUUCUUUCUCGAUAUCAUAUUAAUCUUU | 45.6
Id_ii_S2_P3E.3_K3.2_C3.2_[C-2A]_[T-1C]_H3.2_A3.1_F3.1_T3.2_[T9C]_[A10G] (ssRNA) RNA: UUUGAUUAAUAUGAUAUCGUUCUUUCUACUAUAUAUACGUUCUUUCUCGAUAUCAUAUUAAUCUUU | > 2300
Id_ii_S2_P3E.3_K3.2_C3.2_[C-2T]_H3.2_A3.1_F3.1_T3.2_[T9A] (ssRNA) RNA: UUUGAUUAAUAUGAUAUCGUUCUUUCUUUUAUAUAUAAAUUCUUUCUCGAUAUCAUAUUAAUCUUU | 925
Id_ii_S2_P3E.3_K3.2_C3.2_[C-2T]_[T-1A]_H3.2_A3.1_F3.1_T3.2_[T9C]_[A10C] (ssRNA) RNA: UUUGAUUAAUAUGAUAUCGUUCUUUCUUAUAUAUAUACCUUCUUUCUCGAUAUCAUAUUAAUCUUU | 63.8
Id_ii_S2_P3E.3_K3.2_C3.2_[C-2T]_[T-1C]_H3.2_A3.1_F3.1_T3.2_[T9C] (ssRNA) RNA: UUUGAUUAAUAUGAUAUCGUUCUUUCUUCUAUAUAUACAUUCUUUCUCGAUAUCAUAUUAAUCUUU | 175
Id_ii_S2_P3E.3_K3.2_C3.2_[C-2T]_[T-1C]_H3.2_A3.1_F3.1_T3.2_[T9C]_[A10C] (ssRNA) RNA: UUUGAUUAAUAUGAUAUCGUUCUUUCUUCUAUAUAUACCUUCUUUCUCGAUAUCAUAUUAAUCUUU | 228
Id_ii_S2_P3E.3_K3.2_C3.2_[C-2T]_[T-1G]_H3.2_A3.1_F3.1_T3.2_[T9A]_[A10T] (ssRNA) RNA: UUUGAUUAAUAUGAUAUCGUUCUUUCUUGUAUAUAUAAUUUCUUUCUCGAUAUCAUAUUAAUCUUU | 1.67
Id_ii_S2_P3E.3_K3.2_C3.2_[C-2T]_[T-1A]_H3.2_A3.1_F3.1_T3.2_[A10T] (ssRNA) RNA: UUUGAUUAAUAUGAUAUCGUUCUUUCUUAUAUAUAUAUUUUCUUUCUCGAUAUCAUAUUAAUCUUU | 83.4
Id_ii_S2_P3E.3_K3.2_C3.2_[C-2T]_[T-1C]_H3.2_A3.1_F3.1_T3.2_[T9G]_[A10C] (ssRNA) RNA: UUUGAUUAAUAUGAUAUCGUUCUUUCUUCUAUAUAUAGCUUCUUUCUCGAUAUCAUAUUAAUCUUU | 393
